From publication PMC10343166

Tests used:
[1] = target: Puromycin-sensitive aminopeptidase, wild type, with C-terminal polyhistidine sequence (kinetic studies) (human) (UniProt P55786); experiment: competitive inhibition of enzyme activity (Dixon plots); apparent Ki from inhibition of Ala-4MβNA cleavage at increasing peptide concentrations; 20 mM HEPES pH 7.0, 2 mM BME, 37°C; 20 μM (PSA^wt) or 100 μM (PSA^F433A) Ala-4MβNA; triplicate
[2] = target: Puromycin-sensitive aminopeptidase F433A mutant, with C-terminal polyhistidine sequence (human) (UniProt P55786); experiment: as above
Chain of Puromycin-sensitive aminopeptidase F433A mutant, with C-terminal polyhistidine sequence (human) (P55786 whole entry F433A): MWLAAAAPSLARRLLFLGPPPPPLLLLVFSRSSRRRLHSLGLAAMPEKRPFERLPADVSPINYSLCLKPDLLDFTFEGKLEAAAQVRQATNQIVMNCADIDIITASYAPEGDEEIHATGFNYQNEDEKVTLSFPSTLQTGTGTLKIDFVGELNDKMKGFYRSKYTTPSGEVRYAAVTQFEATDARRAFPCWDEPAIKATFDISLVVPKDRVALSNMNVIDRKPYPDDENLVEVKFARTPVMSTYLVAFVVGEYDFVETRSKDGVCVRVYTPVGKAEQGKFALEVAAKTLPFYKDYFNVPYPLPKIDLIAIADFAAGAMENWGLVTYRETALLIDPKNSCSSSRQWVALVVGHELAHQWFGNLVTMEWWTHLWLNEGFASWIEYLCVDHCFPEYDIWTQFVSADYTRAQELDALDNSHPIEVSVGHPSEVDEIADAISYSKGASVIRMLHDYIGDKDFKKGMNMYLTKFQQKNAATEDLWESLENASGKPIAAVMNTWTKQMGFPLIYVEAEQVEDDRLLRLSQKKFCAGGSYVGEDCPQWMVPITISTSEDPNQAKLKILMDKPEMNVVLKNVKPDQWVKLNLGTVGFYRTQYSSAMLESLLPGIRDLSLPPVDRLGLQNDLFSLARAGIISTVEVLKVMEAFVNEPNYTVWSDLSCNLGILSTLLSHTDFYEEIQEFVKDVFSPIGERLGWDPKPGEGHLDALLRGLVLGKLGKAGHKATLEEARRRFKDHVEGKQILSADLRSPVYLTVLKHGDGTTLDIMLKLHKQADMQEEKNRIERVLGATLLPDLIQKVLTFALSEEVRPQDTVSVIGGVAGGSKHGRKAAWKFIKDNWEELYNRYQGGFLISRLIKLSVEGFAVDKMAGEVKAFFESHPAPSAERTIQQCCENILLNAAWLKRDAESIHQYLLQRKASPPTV

Chain of Puromycin-sensitive aminopeptidase, wild type, with C-terminal polyhistidine sequence (kinetic studies) (human) (P55786 whole entry): as the sequence (P55786 whole entry F433A) above, with A433F counted along it

Dynorphin A(1–17) (peptide)
Ki [1]: 0.44 µM
Ki [2]: 2.6 µM
